Source: US20140105889A1 (published 2014)
Residue numbers refer to the chain shown, from its start. One block for each binder: values may come before it.

Columns and labels:
Assay in all cases: SPR (Biacore), FcγR over captured antibody; binding amount / that of IL6R-BF648/IL6R-L x100
human FcγRIa = target: T1, human FcγRIa (human, UniProt P12314 16-292, limits assumed)
T1 construct: also called FcgRIa; CD64
Procedure: (§1) According to the following method, relative binding activities were calculated for the results of analyzing interactions with the respective FcγRs.

human FcγRIIa type R = target: T2, human FcγRIIa type R (human, UniProt P12318 36-217)
T2 construct: also called FcgRIIaR; FcγRIIa(R)
T2 chain: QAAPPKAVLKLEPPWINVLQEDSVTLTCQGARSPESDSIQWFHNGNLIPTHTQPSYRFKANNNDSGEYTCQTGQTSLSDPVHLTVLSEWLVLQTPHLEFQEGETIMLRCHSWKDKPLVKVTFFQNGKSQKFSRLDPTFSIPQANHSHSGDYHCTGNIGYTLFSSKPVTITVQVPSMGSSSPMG
Procedure: as §1

human FcγRIIa type H = target: T3, human FcγRIIa type H (human, UniProt P12318 36-217)
T3 construct: also called FcgRIIaH; FcγRIIa(H)
T3 sequence: T2 chain with R133H
Procedure: as §1

human FcγRIIb = target: T4, human FcγRIIb (human, UniProt P31994 43-217)
T4 construct: also called FcgRIIb; FcγIIB
T4 sequence: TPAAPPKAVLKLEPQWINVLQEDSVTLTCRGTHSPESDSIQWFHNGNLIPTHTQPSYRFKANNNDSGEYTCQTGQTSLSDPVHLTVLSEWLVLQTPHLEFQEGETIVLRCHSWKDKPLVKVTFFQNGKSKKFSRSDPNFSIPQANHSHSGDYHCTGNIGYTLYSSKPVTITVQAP
Procedure: as §1

human FcγRIIIa type V = target: T5, human FcγRIIIa type V (human, UniProt P08637 17-208, limits assumed)
T5 construct: Allotype V158 was used; also called FcgRIIIaV; FcγRIIIa(V)
T5 sequence (P08637 other isoform, or with tags, fused parts or gaps limits assumed): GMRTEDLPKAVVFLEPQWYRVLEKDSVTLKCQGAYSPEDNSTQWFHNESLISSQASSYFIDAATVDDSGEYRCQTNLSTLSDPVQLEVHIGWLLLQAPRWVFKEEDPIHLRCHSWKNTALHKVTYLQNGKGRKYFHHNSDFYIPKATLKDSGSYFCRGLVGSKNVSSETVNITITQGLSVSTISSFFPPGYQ
Procedure: as §1

T1 sequence (P12314 16-292 limits assumed): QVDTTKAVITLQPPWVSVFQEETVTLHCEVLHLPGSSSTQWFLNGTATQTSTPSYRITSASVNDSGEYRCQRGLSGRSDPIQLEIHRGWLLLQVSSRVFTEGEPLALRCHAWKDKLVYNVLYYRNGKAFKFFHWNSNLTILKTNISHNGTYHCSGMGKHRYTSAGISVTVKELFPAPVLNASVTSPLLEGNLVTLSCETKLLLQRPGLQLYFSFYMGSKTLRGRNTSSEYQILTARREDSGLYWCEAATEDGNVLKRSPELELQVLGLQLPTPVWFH

- relative binding activity (human FcγRIa): 74 % of IL6R-BF648/IL6R-L
- relative binding activity (human FcγRIIa type R): 126 % of IL6R-BF648/IL6R-L
- relative binding activity (human FcγRIIa type H): 106 % of IL6R-BF648/IL6R-L
- relative binding activity (human FcγRIIb): 136 % of IL6R-BF648/IL6R-L
- relative binding activity (human FcγRIIIa type V): 87 % of IL6R-BF648/IL6R-L
B1: IL6R-BP082/IL6R-L (antibody, human IgG1)
heavy: QVQLQESGPGLVKPSETLSLTCAVSGHSISHDHAWSWVRQPPGEGLEWIGFISYSGITNYNPSLQGRVTISRDNSKNTLYLQMNSLRAEDTAVYYCARSLARTTAMDYWGEGTLVTVSSASTKGPSVFPLAPSSKSTSGGTAALGCLVKDYFPEPVTVSWNSGALTSGVHTFPAVLQSSGLYSLSSVVTVPSSSLGTQTYICNVNHKPSNTKVDKKVEPKSCDKTHTCPPCPAPDLLGGDSVFLFPPKPKDTLMISRTPEVTCVVVDVSHEDPEVKFNWYVDGVEVHNAKTKPREEQYNSTYRVVSVLTVLHQDWLNGKEYKCKVSNKALPKPIEKTISKAKGQPREPQVYTLPPSRDELTKNQVSLTCLVKGFYPSDIAVEWESNGQPENNYKTTPPVLDSDGSFFLYSKLTVDKSRWQQGNVFSCSVMHEALHNHYTQESLSLSP
light: DIQMTQSPSSLSASVGDRVTITCRASQDISSYLNWYQQKPGKAPKLLIYYTSRLHSGVPSRFSGSGSGTDFTFTISSLQPEDIATYYCQQGNTLPYTFGQGTKVEIK

- relative binding activity (human FcγRIa): 33 % of IL6R-BF648/IL6R-L
- relative binding activity (human FcγRIIa type R): 163 % of IL6R-BF648/IL6R-L
- relative binding activity (human FcγRIIa type H): 179 % of IL6R-BF648/IL6R-L
- relative binding activity (human FcγRIIb): 137 % of IL6R-BF648/IL6R-L
- relative binding activity (human FcγRIIIa type V): 158 % of IL6R-BF648/IL6R-L
B2: IL6R-BP087/IL6R-L (antibody, human IgG1)
heavy: B1 heavy with D235E, L236Y
light: B1 light

- relative binding activity (human FcγRIa): 25 % of IL6R-BF648/IL6R-L
- relative binding activity (human FcγRIIa type R): 377 % of IL6R-BF648/IL6R-L
- relative binding activity (human FcγRIIa type H): 166 % of IL6R-BF648/IL6R-L
- relative binding activity (human FcγRIIb): 161 % of IL6R-BF648/IL6R-L
- relative binding activity (human FcγRIIIa type V): 122 % of IL6R-BF648/IL6R-L
B3: IL6R-BP088/IL6R-L (antibody, human IgG1)
heavy: B1 heavy with D235E, G239D, K328A
light: B1 light

- relative binding activity (human FcγRIa): 41 % of IL6R-BF648/IL6R-L
- relative binding activity (human FcγRIIa type R): 174 % of IL6R-BF648/IL6R-L
- relative binding activity (human FcγRIIa type H): 151 % of IL6R-BF648/IL6R-L
- relative binding activity (human FcγRIIb): 137 % of IL6R-BF648/IL6R-L
- relative binding activity (human FcγRIIIa type V): 114 % of IL6R-BF648/IL6R-L
B4: IL6R-BP133/IL6R-L (antibody, human IgG1)
heavy: B1 heavy with L236Y
light: B1 light

- relative binding activity (human FcγRIa): 41 % of IL6R-BF648/IL6R-L
- relative binding activity (human FcγRIIa type R): 350 % of IL6R-BF648/IL6R-L
- relative binding activity (human FcγRIIa type H): 224 % of IL6R-BF648/IL6R-L
- relative binding activity (human FcγRIIb): 152 % of IL6R-BF648/IL6R-L
- relative binding activity (human FcγRIIIa type V): 153 % of IL6R-BF648/IL6R-L
B5: IL6R-BP145/IL6R-L (antibody, human IgG1)
heavy: B1 heavy with D235E, L236Y, G239D, K332A
light: B1 light

- relative binding activity (human FcγRIa): 100 % of IL6R-BF648/IL6R-L
- relative binding activity (human FcγRIIa type R): 100 % of IL6R-BF648/IL6R-L
- relative binding activity (human FcγRIIa type H): 100 % of IL6R-BF648/IL6R-L
- relative binding activity (human FcγRIIb): 100 % of IL6R-BF648/IL6R-L
- relative binding activity (human FcγRIIIa type V): 100 % of IL6R-BF648/IL6R-L
B6: IL6R-BF648/IL6R-L (antibody, human IgG1)
heavy: not shown
light: B1 light

- relative binding activity (human FcγRIa): 33 % of IL6R-BF648/IL6R-L
- relative binding activity (human FcγRIIa type R): 603 % of IL6R-BF648/IL6R-L
- relative binding activity (human FcγRIIa type H): 462 % of IL6R-BF648/IL6R-L
- relative binding activity (human FcγRIIb): 176 % of IL6R-BF648/IL6R-L
- relative binding activity (human FcγRIIIa type V): 227 % of IL6R-BF648/IL6R-L
B7: IL6R-BP148/IL6R-L (antibody, human IgG1)
heavy: B1 heavy with L236Y, G239D, K328A
light: B1 light

- relative binding activity (human FcγRIa): 145 % of IL6R-BF648/IL6R-L
- relative binding activity (human FcγRIIa type R): 625 % of IL6R-BF648/IL6R-L
- relative binding activity (human FcγRIIa type H): 1600 % of IL6R-BF648/IL6R-L
- relative binding activity (human FcγRIIb): 58 % of IL6R-BF648/IL6R-L
- relative binding activity (human FcγRIIIa type V): 3260 % of IL6R-BF648/IL6R-L
B8: IL6R-B3/IL6R-L (antibody, human IgG1)
heavy: not shown
light: B1 light
notes: Parent polypeptide

- relative binding activity (human FcγRIa): 109 % of IL6R-BF648/IL6R-L
- relative binding activity (human FcγRIIa type R): 203 % of IL6R-BF648/IL6R-L
- relative binding activity (human FcγRIIa type H): 162 % of IL6R-BF648/IL6R-L
- relative binding activity (human FcγRIIb): 141 % of IL6R-BF648/IL6R-L
- relative binding activity (human FcγRIIIa type V): 106 % of IL6R-BF648/IL6R-L
B9: IL6R-BP084/IL6R-L (antibody, human IgG1)
heavy: B1 heavy with D235E, V325M
light: B1 light

- relative binding activity (human FcγRIa): 68 % of IL6R-BF648/IL6R-L
- relative binding activity (human FcγRIIa type R): 111 % of IL6R-BF648/IL6R-L
- relative binding activity (human FcγRIIa type H): 98 % of IL6R-BF648/IL6R-L
- relative binding activity (human FcγRIIb): 138 % of IL6R-BF648/IL6R-L
- relative binding activity (human FcγRIIIa type V): 95 % of IL6R-BF648/IL6R-L
B10: IL6R-BP129/IL6R-L (antibody, human IgG1)
heavy: B1 heavy with Y298D
light: B1 light
